For 21 molecules, Kd results are on record in patent publication US20140348785A1 (published 2014).

For test [1], the target named is soluble gp41 MPER peptide RRR-(656-683)-RRR. The test can be described thus: kinetic binding (ka/kd).
The target is the same in test [2]. The test is described as follows: kinetic binding (ka/kd); mean of three runs.

Where a chain is given by its changes, count along the chain named. In names and notes the source's numbering stands.

B1: G52cA (heavy chain) (antibody, V domains shown)
VH: EVQLVESGGGLVKPGGSLRLSCSASGFDFDNAWMTWVRQPPGKGLEWVGRITGPAEGWSVDYAAPVEGRFTISRLNSINFLYLEMNNLRMEDSGLYFCARTGKYYDFWSGYPPGEEYFQDWGRGTLVTVSS
VL: SYELTQETGVSVALGRTVTITCRGDSLRSHYASWYQKKPGQAPILLFYGKNNRPSGVPDRFSGSASGNRASLTISGAQAEDDAEYYCSSRDKSGSRLSVFGGGTKLTVL
Regarding B1, in test [1], binding was characterised by a dissociation constant (Kd) of 11.1 nM.

B2: D58A (heavy chain) (antibody, V domains shown)
VH: B1 VH with A55G, D61A
VL: B1 VL
As for B2, in test [1], the Kd was 30.6 nM.

B3: T52A (heavy chain) (antibody, V domains shown)
VH: B1 VH with T52A, A55G
VL: B1 VL
For the molecule B3, the Kd in test [1] worked out at 10.9 nM.

B4: G100dA (heavy chain) (antibody, V domains shown)
VH: B1 VH with A55G, G110A
VL: B1 VL
Regarding B4, binding in test [1] was put at a Kd of 315 nM.

B5: D28A (heavy chain) (antibody, V domains shown)
VH: B1 VH with D28A, A55G
VL: B1 VL
In test [1], B5 had a Kd of 14.3 nM.

B6: P100gA (heavy chain) (antibody, V domains shown)
VH: B1 VH with A55G, P113A
VL: B1 VL
For B6, in test [1], the affinity, expressed as Kd, was 691 nM. Against the preceding molecule, the Kd is about 48-fold higher.

B7: S100cA (heavy chain) (antibody, V domains shown)
VH: B1 VH with A55G, S109A
VL: B1 VL
As to B7, binding in test [1] was put at a Kd of 9.65 nM.

B8: E100iA (heavy chain) (antibody, V domains shown)
VH: B1 VH with A55G, E115A
VL: B1 VL
For B8, the Kd in test [1] was determined as 433 nM.

B9: S56A (heavy chain) (antibody, V domains shown)
VH: B1 VH with A55G, S59A
VL: B1 VL
The molecule B9 came in with a Kd in test [1] of 10.9 nM.

B10: Y100eA (heavy chain) (antibody, V domains shown)
VH: B1 VH with A55G, Y111A
VL: B1 VL
On to B10, for which binding in test [1] was put at a Kd of 75.9 nM.

B11: P100fA (heavy chain) (antibody, V domains shown)
VH: B1 VH with A55G, P112A
VL: B1 VL
As for B11, in test [1], the Kd came out at 757 nM.

B12: W100bA (heavy chain) (antibody, V domains shown)
VH: B1 VH with A55G, W108A
VL: B1 VL
Regarding B12, in test [1], the Kd amounted to 93.1 nM.

B13: K97A (heavy chain) (antibody, V domains shown)
VH: B1 VH with A55G, K103A
VL: B1 VL
In the case of B13, the affinity in test [1], expressed as Kd, was 24.8 nM. This Kd lies about 3.8-fold lower than the previous one.

B14: F100aA (heavy chain) (antibody, V domains shown)
VH: B1 VH with A55G, F107A
VL: B1 VL
Consider B14, for which binding in test [1] was put at a Kd of 429 nM.

B15: D30A (heavy chain) (antibody, V domains shown)
VH: B1 VH with D30A, A55G
VL: B1 VL
B15 had a Kd in test [1] of 11.8 nM.

B16: E100jA (heavy chain) (antibody, V domains shown)
VH: B1 VH with A55G, E116A
VL: B1 VL
Take B16: the Kd in test [1] turned out to be 361 nM. Against the preceding molecule, the Kd is about 31-fold higher.

B17: R95bA (light chain) (antibody, V domains shown)
VH: B1 VH with A55G
VL: B1 VL with R96A
Take B17: the Kd in test [1] was 28.6 nM. Against the preceding molecule, the Kd is about 13-fold lower.

B18: 10E8 IgG alanine variant E53A (heavy chain, Kabat) (antibody, V domains shown)
VH: B1 VH with A55G, E56A
VL: B1 VL
In test [1], B18 had a dissociation constant (Kd) of 395 nM.

B19: 10E8 monoclonal antibody (full-length IgG) (antibody, V domains shown)
VH: B1 VH with A55G
VL: B1 VL
For B19, the affinity in test [2], expressed as Kd, was 6.08 nM. This lies in the single-digit nanomolar range.

B20: N31A (heavy chain) (antibody, V domains shown)
VH: B1 VH with N31A, A55G
VL: B1 VL
Regarding B20, the Kd in test [1] was found to be 13 nM.

B21: Y98A (heavy chain) (antibody, V domains shown)
VH: B1 VH with A55G, Y104A
VL: B1 VL
As for B21, in test [1], the affinity, expressed as Kd, was 27 nM.
